From PMC7350285 come the findings set out here.

For data set [1], the target named is BRG1 AT-BD R1502H (human, UniProt P51532 1434-1569, R1502H). The experiment in a line: BLI. (In BLI a coated tip is dipped into the sample, and binding shifts an interference pattern.)
Data set [2] concerns the target BRG1 AT-BD P1456L (human, UniProt P51532 1434-1569, P1456L). Nature of the data set: BLI.

A word on the Kd: it is a measure of binding affinity in units of concentration.

Sequence of BRG1 AT-BD R1502H (P51532 1434-1569 R1502H): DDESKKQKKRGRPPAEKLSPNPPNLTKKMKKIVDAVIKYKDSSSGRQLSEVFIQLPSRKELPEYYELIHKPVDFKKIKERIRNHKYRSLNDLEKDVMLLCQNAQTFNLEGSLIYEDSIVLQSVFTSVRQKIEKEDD
Sequence of BRG1 AT-BD P1456L (P51532 1434-1569 P1456L): as the sequence (P51532 1434-1569 R1502H) above, with P23L, H69R counted along it

B1: biotinylated SELEX-DNA (dsDNA)
DNA 1: CCTCAATTAAATCTC
DNA 2: GAGATTTAATTGAGG
With B1, the results for the dissociation constant (Kd) in data set [1] and in data set [2] were 2400 ± 200 nM and 1200 ± 100 nM, respectively.
